Experimental data as given in paper PMC12221994.

Key:
KU70/80;DNA-PKcs;TRF2 = KU70/80;DNA-PKcs;TRF2 (human;human;human, UniProt P12956;P13010;P78527;Q15554 1-609;1-732;1-4128;1-542, ||); assay: KU pull-down; TRF2 association with KU mediated by template DNA; Footprinting: 25 mM HEPES pH 7.6, 80 mM KCl, 1.5 mM CaCl2, 1.5 mM MgCl2, 5% glycerol, 50 ug/ml BSA, 2 mM DTT, ice then 37 C (EMSA same buffer, 37 C); pull-down: 20 mM HEPES pH 7.6, 80 mM KCl, 5% glycerol, 0.01% NP-40, 1 mM DTT, 30 C; cryo-EM: 40 mM HEPES pH 7.6, 100 mM NaCl, 3 mM MgCl2, 4 C; conditions: protein: recombinant;native;recombinant; tags: FLAG (KU70 N-terminal);;dual strep; copies: 1;1;1;2; blunt
KU70/80;DNA-PKcs = KU70/80;DNA-PKcs (human;human, UniProt P12956;P13010;P78527 1-609;1-732;1-4128, |); assay: KU pull-down; DNA-PKcs associates with KU in a DNA-dependent manner; Footprinting: 25 mM HEPES pH 7.6, 80 mM KCl, 1.5 mM CaCl2, 1.5 mM MgCl2, 5% glycerol, 50 ug/ml BSA, 2 mM DTT, ice then 37 C (EMSA same buffer, 37 C); pull-down: 20 mM HEPES pH 7.6, 80 mM KCl, 5% glycerol, 0.01% NP-40, 1 mM DTT, 30 C; cryo-EM: 40 mM HEPES pH 7.6, 100 mM NaCl, 3 mM MgCl2, 4 C; conditions: protein: recombinant;native; tags: FLAG (KU70 N-terminal);; copies: 1;1;1; blunt

B1: PE3/PE4 telomeric duplex (dsDNA)
DNA 1: CGTCTATATTCTATTGTCTCTTAGGGTTAGGGTTAGGGTTAGGGTTAGGGTTAGGGTTAGGGTTAGGGTTAACATCAGTCTCACATAGATTAGCTCACGC
DNA 2: GCGTGAGCTAATCTATGTGAGACTGATGTTAACCCTAACCCTAACCCTAACCCTAACCCTAACCCTAACCCTAACCCTAAGAGACAATAGAATATAGACG
Question: Does B1 bind (KU70/80;DNA-PKcs;TRF2)?
Answer: Result: binds

Question: Does B1 bind (KU70/80;DNA-PKcs)?
Answer: Result: binds
